The supplement of paper PMC5998384

Experiments:
[1] = system: HeLa Kyoto; assay: solubility in G1/S (NP-40 vs SDS abundance) (log2 ratio); higher = more soluble; conditions: cell cycle stage: G1/S
[2] = system: HeLa Kyoto; assay: melting temperature (median over replicates), in situ; higher = more thermally stable
[3] = system: HeLa Kyoto; assay: solubility change mitosis vs G1/S (difference of NP-40 vs SDS log2 ratios) (log2 ratio difference); higher = more soluble in mitosis
[4] = system: HeLa Kyoto; assay: thermal stability score vs G1/S (z-score of summed log2 fold changes over temperatures); higher = more thermally stable than in G1/S
[5] = cell cycle stage: early G1 (4.5 h after nocodazole release)
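For melting temperature (median over replicates), in situ in this document: HeLa Kyoto cells synchronized by double thymidine or nocodazole block, proteins quantified by TMT10plex mass spectrometry, three independent biological replicates.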
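For solubility change mitosis vs G1/S (difference of NP-40 vs SDS log2 ratios) in this document: synchronized HeLa Kyoto cells (double thymidine block for G1/S, nocodazole release for mitosis), protein amounts in NP-40 versus SDS lysates quantified by mass spectrometry, three biological replicates.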
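For solubility in G1/S (NP-40 vs SDS abundance) in this document: HeLa Kyoto cells arrested at G1/S by double thymidine block, proteins quantified by TMT10plex mass spectrometry in mild NP-40 versus SDS extracts, three biological replicates.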
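For thermal stability score vs G1/S (z-score of summed log2 fold changes over temperatures) in this document: synchronized HeLa Kyoto cells, proteins quantified by TMT10plex mass spectrometry, three biological replicates, mitosis taken 0.5 h after nocodazole release, G1/S directly after double thymidine block.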

“MSDKLPYKVADIGLAAWGRKALDIAENEMPGLMRMRERYSASKPLKGARIAGCLHMTVETAVLIETLVTLGAEVQWSSCNIFSTQDHAAAAIAKAGIPVYAWKGETDEEYLWCIEQTLYFKDGPLNMILDDGGDLTNLIHTKYPQLLPGIRGISEETTTGVHNLYKMMANGILKVPAINVNDSVTKSKFDNLYGCRESLIDGIKRATDVMIAGKVAVVAGYGDVGKGCAQALRGFGARVIITEIDPINALQAAMEGYEVTTMDEACQEGNIFVTTTGCIDIILGRHFEQMKDDAIVCNIGHFDVEIDVKWLNENAVEKVNIKPQVDRYRLKNGRRIILLAEGRLVNLGCAMGHPSFVMSNSFTNQVMAQIELWTHPDKYPVGVHFLPKKLDEAVAEAHLGKLNVKLTKLTEKQAQYLGMSCDGPFKPDHYRY [AHCY]” was tested, and the “solubility in G1/S (log2)” value [1] was 0.0748, the melting temperature ([2]; cell cycle stage: G1/S) was 58.9 °C and the melting temperature ([2]; cell cycle stage: mitosis) was 59.3 °C. The “solubility change mitosis (log2)” value [3] was -0.0568, the thermal stability score [4, 5] was -2.93 and the thermal stability score ([4]; cell cycle stage: mitosis) was -2.39.
“MADPWQECMDYAVTLARQAGEVVCEAIKNEMNVMLKSSPVDLVTATDQKVEKMLISSIKEKYPSHSFIGEESVAAGEKSILTDNPTWIIDPIDGTTNFVHRFPFVAVSIGFAVNKKIEFGVVYSCVEGKMYTARKGKGAFCNGQKLQVSQQEDITKSLLVTELGSSRTPETVRMVLSNMEKLFCIPVHGIRSVGTAAVNMCLVATGGADAYYEMGIHCWDVAGAGIIVTEAGGVLMDVTGGPFDLMSRRVIAANNRILAERIAKEIQVIPLQRDDED [IMPA1]” was tested, and the “solubility in G1/S (log2)” value [1] was 0.0966, the melting temperature ([2]; cell cycle stage: G1/S) was 59.9 °C and the melting temperature ([2]; cell cycle stage: mitosis) was 61.1 °C. For the same substance, the “solubility change mitosis (log2)” value [3] was -0.19, the thermal stability score [4, 5] was -1.12 and the thermal stability score ([4]; cell cycle stage: mitosis) was -2.39.
For “MAAVVAATRWWQLLLVLSAAGMGASGAPQPPNILLLLMDDMGWGDLGVYGEPSRETPNLDRMAAEGLLFPNFYSANPLCSPSRAALLTGRLPIRNGFYTTNAHARNAYTPQEIVGGIPDSEQLLPELLKKAGYVSKIVGKWHLGHRPQFHPLKHGFDEWFGSPNCHFGPYDNKARPNIPVYRDWEMVGRYYEEFPINLKTGEANLTQIYLQEALDFIKRQARHHPFFLYWAVDATHAPVYASKPFLGTSQRGRYGDAVREIDDSIGKILELLQDLHVADNTFVFFTSDNGAALISAPEQGGSNGPFLCGKQTTFEGGMREPALAWWPGHVTAGQVSHQLGSIMDLFTTSLALAGLTPPSDRAIDGLNLLPTLLQGRLMDRPIFYYRGDTLMAATLGQHKAHFWTWTNSWENFRQGIDFCPGQNVSGVTTHNLEDHTKLPLIFHLGRDPGERFPLSFASAEYQEALSRITSVVQQHQEALVPAQPQLNVCNWAVMNWAPPGCEKLGKCLTPPESIPKKCLWSH [GALNS]”, the “solubility in G1/S (log2)” value [1] was 0.789, the melting temperature ([2]; cell cycle stage: G1/S) was 55.5 °C and the melting temperature ([2]; cell cycle stage: mitosis) was 57.8 °C. The “solubility change mitosis (log2)” value [3] was -0.0581, the thermal stability score [4, 5] was -4.28 and the thermal stability score ([4]; cell cycle stage: mitosis) was -1.14.
“MMEEEELEFVEELEAVLQLTPEVQLAIEQVFPSQDPLDRADFNAVEYINTLFPTEQSLANIDEVVNKIRLKIRRLDDNIRTVVRGQTNVGQDGRQALEEAQKAIQQLFGKIKDIKDKAEKSEQMVKEITRDIKQLDHAKRHLTTSITTLNHLHMLAGGVDSLEAMTRRRQYGEVANLLQGVMNVLEHFHKYMGIPQIRQLSERVKAAQTELGQQILADFEEAFPSQGTKRPGGPSNVLRDACLVANILDPRIKQEIIKKFIKQHLSEYLVLFQENQDVAWLDKIDRRYAWIKRQLVDYEEKYGRMFPREWCMAERIAVEFCHVTRAELAKIMRTRAKEIEVKLLLFAIQRTTNFEGFLAKRFSGCTLTDGTLKKLESPPPSTNPFLEDEPTPEMEELATEKGDLDQPKKPKAPDNPFHGIVSKCFEPHLYVYIESQDKNLGELIDRFVADFKAQGPPKPNTDEGGAVLPSCADLFVYYKKCMVQCSQLSTGEPMIALTTIFQKYLREYAWKILSGNLPKTTTSSGGLTISSLLKEKEGSEVAKFTLEELCLICNILSTAEYCLATTQQLEEKLKEKVDVSLIERINLTGEMDTFSTVISSSIQLLVQDLDAACDPALTAMSKMQWQNVEHVGDQSPYVTSVILHIKQNVPIIRDNLASTRKYFTQFCVKFANSFIPKFITHLFKCKPISMVGAEQLLLDTHSLKMVLLDLPSISSQVVRKAPASYTKIVVKGMTRAEMILKVVMAPHEPLVVFVDNYIKLLTDCNTETFQKILDMKGLKRSEQSSMLELLRQRLPAPPSGAESSGSLSLTAPTPEQESSRIRKLEKLIKKRL [VPS53]” was tested, and the “solubility in G1/S (log2)” value [1] was 0.196, the melting temperature ([2]; cell cycle stage: G1/S) was 50 °C and the melting temperature ([2]; cell cycle stage: mitosis) was 49.7 °C. For the same substance, the “solubility change mitosis (log2)” value [3] was -0.136, the thermal stability score [4, 5] was 0.237 and the thermal stability score ([4]; cell cycle stage: mitosis) was 1.04.
For TENM3, the “solubility in G1/S (log2)” value [1] was 0.0433, the melting temperature ([2]; cell cycle stage: G1/S) was 54.9 °C and the melting temperature ([2]; cell cycle stage: mitosis) was 55.6 °C. The “solubility change mitosis (log2)” value [3] was -0.0942, the thermal stability score [4, 5] was -2.98 and the thermal stability score ([4]; cell cycle stage: mitosis) was -2.29.
With “MAAALFVLLGFALLGTHGASGAAGFVQAPLSQQRWVGGSVELHCEAVGSPVPEIQWWFEGQGPNDTCSQLWDGARLDRVHIHATYHQHAASTISIDTLVEEDTGTYECRASNDPDRNHLTRAPRVKWVRAQAVVLVLEPGTVFTTVEDLGSKILLTCSLNDSATEVTGHRWLKGGVVLKEDALPGQKTEFKVDSDDQWGEYSCVFLPEPMGTANIQLHGPPRVKAVKSSEHINEGETAMLVCKSESVPPVTDWAWYKITDSEDKALMNGSESRFFVSSSQGRSELHIENLNMEADPGQYRCNGTSSKGSDQAIITLRVRSHLAALWPFLGIVAEVLVLVTIIFIYEKRRKPEDVLDDDDAGSAPLKSSGQHQNDKGKNVRQRNSS [BSG]” the “solubility in G1/S (log2)” value [1] was 0.205, the melting temperature ([2]; cell cycle stage: G1/S) was 59.1 °C and the melting temperature ([2]; cell cycle stage: mitosis) was 59.8 °C. For the same substance, the “solubility change mitosis (log2)” value [3] was -0.00749, the thermal stability score [4, 5] was -0.849 and the thermal stability score ([4]; cell cycle stage: mitosis) was -2.75.
With “MEGLTLSDAEQKYYSDLFSYCDIESTKKVVVNGRVLELFRAAQLPNDVVLQIMELCGATRLGYFGRSQFYIALKLVAVAQSGFPLRVESINTVKDLPLPRFVASKNEQESRHAASYSSDSENQGSYSGVIPPPPGRGQVKKGSVSHDTVQPRTSADAQEPASPVVSPQQSPPTSPHTWRKHSRHPSGGNSERPLAGPGPFWSPFGEAQSGSSAGDAVWSGHSPPPPQENWVSFADTPPTSTLLTMHPASVQDQTTVRTVASATTAIEIRRQSSSYDDPWKITDEQRQYYVNQFKTIQPDLNGFIPGSAAKEFFTKSKLPILELSHIWELSDFDKDGALTLDEFCAAFHLVVARKNGYDLPEKLPESLMPKLIDLEDSADVGDQPGEVGYSGSPAEAPPSKSPSMPSLNQTWPELNQSSEQWETFSERSSSSQTLTQFDSNIAPADPDTAIVHPVPIRMTPSKIHMQEMELKRTGSDHTNPTSPLLVKPSDLLEENKINSSVKFASGNTVADGYSSSDSFTSDPEQIGSNVTRQRSHSGTSPDNTAPPPPPPRPQPSHSRSSSLDMNRTFTVTTGQQQAGVVAHPPAVPPRPQPSQAPGPAVHRPVDADGLITHTSTSPQQIPEQPNFADFSQFEVFAASNVNDEQDDEAEKHPEVLPAEKASDPASSLRVAKTDSKTEEKTAASAPANVSKGTTPLAPPPKPVRRRLKSEDELRPEVDEHTQKTGVLAAVLASQPSIPRSVGKDKKAIQASIRRNKETNTVLARLNSELQQQLKDVLEERISLEVQLEQLRPFSHL [REPS1]” the “solubility in G1/S (log2)” value [1] was 0.0849, the melting temperature ([2]; cell cycle stage: G1/S) was 48.8 °C and the melting temperature ([2]; cell cycle stage: mitosis) was 49.8 °C. The “solubility change mitosis (log2)” value [3] was -0.0971, the thermal stability score [4, 5] was 0.407 and the thermal stability score ([4]; cell cycle stage: mitosis) was 0.261.
In the case of “MGPRSRERRAGAVQNTNDSSALSKRSLAARGYVQDPFAALLVPGAARRAPLIHRGYYVRARAVRHCVRAFLEQIGAPQAALRAQILSLGAGFDSLYFRLKTAGRLARAAVWEVDFPDVARRKAERIGETPELCALTGPFERGEPASALCFESADYCILGLDLRQLQRVEEALGAAGLDAASPTLLLAEAVLTYLEPESAAALIAWAAQRFPNALFVVYEQMRPQDAFGQFMLQHFRQLNSPLHGLERFPDVEAQRRRFLQAGWTACGAVDMNEFYHCFLPAEERRRVENIEPFDEFEEWHLKCAHYFILAASRGDTLSHTLVFPSSEAFPRVNPASPSGVFPASVVSSEGQVPNLKRYGHASVFLSPDVILSAGGFGEQEGRHCRVSQFHLLSRDCDSEWKGSQIGSCGTGVQWDGRLYHTMTRLSESRVLVLGGRLSPVSPALGVLQLHFFKSEDNNTEDLKVTITKAGRKDDSTLCCWRHSTTEVSCQNQEYLFVYGGRSVVEPVLSDWHFLHVGTMAWVRIPVEGEVPEARHSHSACTWQGGALIAGGLGASEEPLNSVLFLRPISCGFLWESVDIQPPITPRYSHTAHVLNGKLLLVGGIWIHSSSFPGVTVINLTTGLSSEYQIDTTYVPWPLMLHNHTSILLPEEQQLLLLGGGGNCFSFGTYFNPHTVTLDLSSLSAGQ [LCMT2]”, the “solubility in G1/S (log2)” value [1] was -0.0889, the melting temperature ([2]; cell cycle stage: G1/S) was 51.2 °C and the melting temperature ([2]; cell cycle stage: mitosis) was 50.7 °C. The “solubility change mitosis (log2)” value [3] was -0.199, the thermal stability score [4, 5] was -0.211 and the thermal stability score ([4]; cell cycle stage: mitosis) was -0.346.
